Experimental findings from article PMC7876137, “Functional and structural characterization of a flavoprotein monooxygenase essential for biogenesis of tryptophylquinone cofactor” (Nature Communications, 2021) are described below.

B1: QhpG from Pseudomonas putida IFO 15366 (wild-type) (enzyme)
chain: MAEPRIVVLGAGPAGAATAIGLRRLGYAVTVVSEWRRFAAVEGVSQRVLEGLRHVGLGGALRQAAMPATRQVHWNGQQLHLNQEFLLDRQRFDRALRDDLQRAGVSVVEGRVREVVRDVGHGIRLDDGQVLQADFLVEARGRQAPLAADRLRGPETVSLLNVWQAAPGAPASAVESLADGWAWMARLEDGRCYWQVTLDAAGLPGKAGLADYCAARRADSALVTELFDARALASAEVHARSSTAILAGECVGQDWIRVGDAAMAVDPLSGNGIFQSLSSALQAPVVINTLLRRPERAGLARQFHQQRIEQLFLRFARIGRDFYGQEQGRVGQPFWARRQGWPDMQALHVAADWSAVRVERRPVLRDGLVDEAEVVVTADQPLGVWHLQGVELAPAVRELQAGRPLEAVVSGLSGEQQRMVRRWLLEQGLV
notes: Monomer by gel filtration; From the His6-TEV oligonucleotide, a few residues (G, H) may remain before Met1 after TEV cleavage; this is surmised; also called PpQhpG; peptidyl tryptophan dihydroxylase; source: E. coli C41 (DE3), purified (Ni-Sepharose FF, HisTrap HP; His6-tag removed with TEV protease, second HisTrap HP); not shown: His6, N-terminal, cleaved
B2: QhpG R314A mutant (Pseudomonas putida) (enzyme)
chain: B1 chain with R314A
notes: R314A is still to be applied; source: E. coli C41 (DE3), purified (Ni-Sepharose FF, HisTrap HP; His6-tag removed with TEV protease, second HisTrap HP); not shown: His6, N-terminal, cleaved
B3: QhpG R47A mutant (Pseudomonas putida) (enzyme)
chain: B1 chain with R47A
notes: R47A is still to be applied; source: E. coli C41 (DE3), purified (Ni-Sepharose FF, HisTrap HP; His6-tag removed with TEV protease, second HisTrap HP); not shown: His6, N-terminal, cleaved
B4: QhpG E42A mutant (Pseudomonas putida) (enzyme)
chain: B1 chain with E42A
notes: E42A is still to be applied; source: E. coli C41 (DE3), purified (Ni-Sepharose FF, HisTrap HP; His6-tag removed with TEV protease, second HisTrap HP); not shown: His6, N-terminal, cleaved
B5: QhpG R70A mutant (Pseudomonas putida) (enzyme)
chain: B1 chain with R70A
notes: R70A is still to be applied; source: E. coli C41 (DE3), purified (Ni-Sepharose FF, HisTrap HP; His6-tag removed with TEV protease, second HisTrap HP); not shown: His6, N-terminal, cleaved
B6: QhpG W183F mutant (Pseudomonas putida) (enzyme)
chain: B1 chain with W183F
notes: W183F is still to be applied; source: E. coli C41 (DE3), purified (Ni-Sepharose FF, HisTrap HP; His6-tag removed with TEV protease, second HisTrap HP); not shown: His6, N-terminal, cleaved

Numbering of substitutions follows the chain as printed. Names and notes keep the numbering of the source.

One experiment has as its target crosslinked QhpC (quinone-less QhpC of Ps. putida with three intra-peptidyl thioether bonds, the 28-residue leader peptide and a C-terminal Twin-Strep tag) (Pseudomonas putida IFO 15366 (NBRC 15366)). The experiment can be described thus: BLI; BLItz; QhpC immobilised through the St2-tag on streptavidin-coated biosensors, QhpG as analyte; 10 mM Tris-HCl, pH 7.4, 150 mM NaCl, 0.1% BSA, 0.02% Tween 20, 25 °C; global analysis.
Settings: not given
For orientation: BLI is a label-free optical method that tracks binding on a fibre tip over time.
In the case of “QhpG from Pseudomonas putida (flavoprotein monooxygenase, peptidyl tryptophan dihydroxylase), tag-less wild type (enzyme)”, the fold higher affinity (KD) than for linear QhpC was determined as 100 fold.

A further experiment addresses T1, linear QhpC (nascent QhpC polypeptide with the 28-residue leader peptide and a C-terminal Twin-Strep tag, … (Pseudomonas putida IFO 15366 (NBRC …))).
T1 construct: also called QhpC-St2; source: E. coli C41 (DE3), co-expressed with His6-QhpD; QhpCD complex purified (HisTrap, Strep trap); QhpD removed by heat denaturation (60 °C, 20 min) before the QhpD-catalyzed reaction; not shown: Twin-Strep (St2), C-terminal, kept
T1 chain: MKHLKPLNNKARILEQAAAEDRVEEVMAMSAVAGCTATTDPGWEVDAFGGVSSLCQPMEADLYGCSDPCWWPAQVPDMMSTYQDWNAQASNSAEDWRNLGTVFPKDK
The experiment can be described thus: BLI; BLItz system; linear or crosslinked QhpC immobilised through the St2-tag on streptavidin-coated biosensors; QhpG as analyte; 10 mM Tris-HCl pH 7.4, 150 mM NaCl, 0.1% BSA, 0.02% Tween 20; 25 °C; reference with a ligand-free biosensor; global analysis. Conditions: both partners purified.
For the molecule B1, the equilibrium dissociation constant (Kd) (usually a measure of binding affinity in units of concentration) was 2800 ± 22 nM; the koff (in general, the rate constant with which the complex falls apart) stood at 0.16 s⁻¹; the on-rate constant (kon) (usually the second-order rate constant of association) amounted to 59000 M⁻¹ s⁻¹.

For another experiment, the target named is T2, crosslinked QhpC (quinone-less QhpC with three intra-peptidyl thioether bonds, the 28-residue leader peptide … (Pseudomonas putida IFO 15366 (NBRC …, three intra-peptidyl Cys-to-Asp/Glu thioether bonds (Cys7-Glu16, Cys27-Asp33, Cys41-Asp49 as drawn in Supplementary Fig. 5); Cys37 and Trp43 free).
T2 construct: source: E. coli C41 (DE3), co-expressed with His6-QhpD; QhpCD complex purified (HisTrap, Strep trap); QhpD removed by heat denaturation (60 °C, 20 min) after the QhpD-catalyzed thioether bond formation; not shown: Twin-Strep (St2), C-terminal, kept
T2 chain: T1 chain
The description is as above. Conditions: both partners purified.
Molecule B1 showed a Kd of 28 ± 2.3 nM, a koff of 0.014 s⁻¹ and a kon of 490000 M⁻¹ s⁻¹.
In turn, B2 had a Kd of 78 ± 28 nM, a koff of 0.011 s⁻¹ and an on-rate (kon) of 140000 M⁻¹ s⁻¹.
The matching figures for B3: 1500 ± 490 nM, 0.023 s⁻¹ and 15000 M⁻¹ s⁻¹.
The matching figures for B4: 65 ± 8.1 nM, 0.011 s⁻¹ and 170000 M⁻¹ s⁻¹.
The matching figures for B5: 48 ± 3.6 nM, 0.022 s⁻¹ and 470000 M⁻¹ s⁻¹.
Take B6: the affinity, expressed as Kd, was 37 ± 19 nM; the koff is 0.013 s⁻¹; the kon was determined as 360000 M⁻¹ s⁻¹.
